Measurements as given in article PMC2824085 (2010).

Molecular target: Man9GlcNAc2 glycopeptide isolated from soybean agglutinin (soybean, UniProt P05046, Man9GlcNAc2 oligosaccharide, N-linked)
Experiment: SPR; glycopeptide immobilized

Sequence of Man9GlcNAc2 glycopeptide isolated from soybean agglutinin (P05046 whole entry): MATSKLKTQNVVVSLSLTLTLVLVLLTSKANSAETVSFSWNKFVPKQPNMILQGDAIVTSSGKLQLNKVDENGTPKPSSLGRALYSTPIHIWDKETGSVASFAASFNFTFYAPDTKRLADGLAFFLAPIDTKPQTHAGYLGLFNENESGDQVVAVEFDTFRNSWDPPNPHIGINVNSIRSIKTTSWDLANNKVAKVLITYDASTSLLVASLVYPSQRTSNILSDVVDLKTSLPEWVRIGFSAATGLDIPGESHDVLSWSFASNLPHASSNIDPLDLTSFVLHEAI

B1: monomeric carbohydrate-recognition domain (CRD) from DC-SIGN (domain or fragment)
chain: ERLCHPCPWEWTFFQGNCYFMSNSQRNWHDSITACKEVGAQLVVIKSAEEQNFLQLQSSRSNRFTWMGLSDLNQEGTWQWVDGSPLLPSFKQYWNRGEPNNVGEEDCAEFSGNGWNDDKCNLAKFWICKKSAASCSRDEEQFLSPAPATPNPPPA
B1 showed a Kd of 66 µM.
